Measured values as given in the supplement of paper PMC9170038.

System: K4 kissing-loop RNA reporter
Assay: apparent KD of K4 kissing-loop reporter; higher = weaker reporter binding
Conditions: Eterna round: R107; input ligand: arginine 13.2 mM
Procedure: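 RNA-MaP round R107: designed RNA switches with theophylline, tryptophan, arginine or FMN aptamers are transcribed on-chip within common flanks. They are titrated with a labelled K4 kissing-loop RNA reporter in RNA-MaP buffer (100 mM Tris pH 7.5, 80 mM KCl, 4 mM MgCl2), without ligand or with the indicated ligand. Median apparent KD per design.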
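Further: bound reporter read as fluorescence of individual clusters on recovered sequencing chips by microscopy, with normalized cluster intensities fitted with a binding model.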

Sequence | apparent KD of K4 kissing-loop reporter [nM]
UGACUGGACUGAAGGAGCGCGAAACUCCUAGUGAUGUUAGGACAACGAGACAAAGUCUCGACGCAGGUAGGUCGCAGUCUAGUCU | 111
GAGGGCUCGGGAGGAUAUGAGUCUAGUGAUGUUAGGCGGUCCAUGCGCGUGGCGCGUUAUGCCCUUUUAGAAGGCCCGAGCCCGC [#2 Exclusion - FMN B Attempt #23 (HarryS)] | 76.4
CCAUCGCUAUUCGAUACCAGCUACUUAGUGAUGUUAAGUUUAUAUCCACUGUAGGUGGAAAGCCCUUGGCAGCGAAUAGUGAUGG [Theophylline B K4 25] | 412
GGGCUGGUGCUAGGAUAUGCGAUGAAUGCUCAGAAAACCUUGAGUCCGCAGUGAUGUUGCGGCACCGCAGAAGGAGCUAAGGCUC [Reorinraor] | 138
UGUACCGAGUCAGGAUAUGGCGUCGAAAGACGAAACCAGUGAUGUUGGAAUAUCGACGAAAGUCGUCCAGAAGGGACUUGGUACU [FmnBS 17 #SwitchBubble #StaticStem #DoubleMagnetSystem] | 264
GUAUGUGGAAACACGUACUUGUAUCCUAAGCAGGAUAUGCGGAAACGCAGAAGGGCUACCAGCGAGUUUAUCCAGUGAUGUUGGA [Ex FMN A 12] | 235
AAUUUCGGAUACAUCAUAGUUUUAAUUCGGCGAGGACCGGUACGGCCGCCACUCGGUAUAGACGCGUCCAGUGAUGUUGGCGCUU [theeternabot_sameState_KL_Trp_A_45] | 193
UGGAUAUCGUUUAGUCUGGUGAGCUCAGAUACCAGACUAGCGAUGGUCCCUUGGCAGCUGAUUACGAUUGAGUGAUGUUCAAUCG [Theo A Ex t9c] | 152
UUUAUUAAGACGGCCGCCACUGAAUUAGAGUGAUGUUCUAAAAUUUUUAAUUUUUUUUUUUUCAGCAGGACCGGGUCAAUUAUUA [JR_SSTryptoB_Sub012] | 95.3
AACGUUUUGAGAAGGAGCGCGAUAAGCAGUGAUGUUGCUAUAAUUCUAUUUCUAUUUAAUUCGCAGGUAGGUCGCUCAAUACGUA [JR_SSArginiB_Sub019] | 134
AAGGUAUCACCACAACAUCACUAAGGUGAUACCAGCAUCGAAAGAUGCCCUUGGCAGCACCAACUUGCAGUGAUGUUGCAAGUAA [(T)'-(H)'-(T1)-(T2)-(H1)-(H2)_Design9] | 310
GCAGGACGAGGAGGAGGAUGAAUUACUGAAGGAGCGCAUAUUUUUGCAGGUAGGUCGCGGUAAACAAGUAUAGUGAUGUUAUAUA [SSArgA.M] | 464
CUGGGUUGACGAAAAGUCAACAAAUGAGAAGGAGCGCACGAAAGUGCAGGUAGGUCGCUCAAUCCAGUGAUGUUGGGUCAUCCAG [#SwitchBubble 13 #K4Late] | 612
ACCCGGGCCCGAAAGGGCCCGGGAAGAGAUACCAGCAGCGAAAGCUGCCCUUGGCAGCUCACUUAGUGAUGUUGAGAAUAGGGCG [#21 K4 Theophylline A Same State] | 221
GGCAGUGAUGUUGCCAGUGGCAGAUGAGAAGGAGCGUGGUGAGACACAGGUAGGUCGCUCAUUGAAAUUGCUGUCACUAAAAUGC [#5] | 322
GAUUUAGAGGCGGCCGCCACUAGUGAUGUUAGUGAUGUUUGAUACGGAAUAUAUCUGCGAGUAGAUAGGACCGGGCCAGAUGGAG [rttrbmullin] | 150

Sequence | apparent KD of K4 kissing-loop reporter [nM]
UUAUAUAAUUUGUCUUUUUUAACAUUAAGUCAGGAUAUCGUAUAUUCGAGAAGGGACACAUGCUAGUGAUGUUAGCUAUUUCUUU [JR_ExcFMNA_Sub016] | 55.3
AUACGUUUAAGUGAUACCAGACUGGUGAGUGAUGUUUACCAAUAAAUUAAAUUAUUAGCUGUCCCUUGGCAGCACAGUUUAUUUA [JR_ExcTheophyB_Sub005] | 330
UGAGUGAUGUUCAAGGACUAGAUCUAAAUAAAGGAUAUAGCAUACGCUAGAAGGUUAAAAUUUCUGGAUCCCAGUUUAAACCUUU [theeternabot_sameState_KL_FMN_A_49] | 154
UGGCGUUGAACCGCCGAAUCGCUGUGAGAAGGAGCGGUAAAAUUGCCAGGUAGGUCGCUCACAGCUUCACAGUGAUGUUGUGGAA [Enxeisen] | 161
ACGUAGUACGUAGGAUAUCAGAGAUCAGUUAGUGAGAUCGAGUGAUGUUCGAUCAAGUGUUCAUUUUGAGAAGGAUGUAGUAGGA [KL-SSFMN-B7] | 320
GGAGAGCGGAACGAUACCAGCUGCGGCACGCACCGGAAGUUAAGCCAGUGAUGUUGGCGGAGCCCUUGGCAGCGUGCGCGCGUCC [Abeusma] | 93.3
GGUUGAAGUACCCGGAGUGAUGUUCCGGAUACCAGCAAACCAACUUGCCCUUGGCAGCCGUAUAGCGUCCGGUGGACCGAGCAUA [Soriesreve] | 70.3
GCCGAAUCGUUGGGCUCAGUGAUGUUGAUCCGAGGACCGGUACGGCCGCCACUCGAAUGGCAGUGACCACACUGGUAACGUUAAA [theeternabot_exclusion_KL_Trp_A_43] | 490
GGAGUUACCUGGGAUACCAGUCGGAGUCUCAGAGCACGGAGUGAUGUUCUGGGAUGUUUCGGCCCUUGGCAGCUCUGGGACUCCA [#2 Exclusion - Theophylline B Attempt #15 (HarryS)] | 209
UCUGGUAUAUCUGAUACCAGAGAAUAGAAUCAAUUGAAUAUGGAGUGAUGUUCCAUAAAACUCCCUUGGCAGCAGAUAAUCAUAU [Same State Theophylline B GF 22] | 167
AGACCUCAGUGAUGUUGAGGUAACGCUGAUACCAGUGACUUAAUUCACCCUUGGCAGCAGUCCACCAAGGUAUCUGAUUAGGUCU [Theo A Ex t5] | 163
CUUUAUCAACCAGAUACCAGCGGUUCUCUAGUUGGCUUCCGUAGUGAUGUUGCGUGGUCCCGCCCUUGGCAGCUGGCCAUGACUA [theeternabot_sameState_KL_Theo_B_5] | 684
AGGAGCGUGGGAUGGAAAUCGCACGCUCCUCGAGGACCGGUACGGCCGCCACUCGCUCGCGCCGAGUGAUGUUCGGCCGGCGAAC [#2 Same State - Tryptophan A Attempt #11 (HarryS)] | 111
UAGUAGUAGCGAGGAUAUGCAAUAGGCGAGUGAUGUUCGCCAGGCGGGCGUCGCAUAUAAGAAAGAGCAGAAGGCGCUAGGUAGA [SameState - FMN B / A] | 303
AAGCAGUCACUCGAAGCCAUCGAAGAUGGCCGAGGACCGGUACGGCCGCCACUCGGAGUGAUGUUCCGAAGACUGCAAAAUAAAA | 303
AACGGCCAGUCGGCCGCCACUCAAAGCAGUGAUGUUGCUAACUUUCUAAAAGAGUGAUGUUCUUAGAGGACCGGGACUAAUGUAA [Exclusion Tryptophan B GF 2] | 147

Same assay, conditions: Eterna round: R107; input ligand: none

Sequence | apparent KD of K4 kissing-loop reporter [nM]
AUUUGUUUAUGUGAUACCAGACUUUGCAGUGAUGUUGCAUUUAUUUUAGAAUUUUAUUUAGUCCCUUGGCAGCACUAUGUAUUUA [JR_SSTheophyB_Sub007] | 53.1
UGUACCGAGUCAGGAUAUCAAAAUAAUUGGAGUGAUGUUCCAAAUACGACUGACAAAGUCGGUCGAUGAGAAGGGACUUGGUACU [FmnBS 11 #SwitchBubble #StaticStem] | 122
CAUACGCAUGGAGGAUAUGAGAUUACUCAUAUCAUUUAAUAUUCUCAGUGAUGUUGAGAUUUAGGCUCAGAAGGCCAUGUGUAUG [Ex FMN B 14] | 412
CGCGUGGGUUUGAGAGGGUUUGCGCGAAGUGAGGAUAUUUAGGGAGAAAGAAGGCACUAUAAAAUAUAGUGAUGUUAUAUAAGGG [SSFMNA.J] | 170
ACAUCGGUUGAGAGUGAUGUUCCUUGUGUUCGAGGACCGGUACGGCCGCCACUCGGGUAGAAAAUAAAAGAUGUGUUUGAUUUUU [BDazzled - #15 SS Tryptophan A] | 143
AAUAAAAUCACGGCCGCCACUGAAUAAUUGGUAAGUAGUGAUGUUACUUUACUUUUCUUAUUUAACAGGACCGGGUGAAUAUUUA [JR_ExcTryptoB_Sub009] | 98.5
GAUAUAGUGAUGUUAUAUAAGAAGGAGUUACGAGGACCGGUACGGCCGCCACUCGAAACGAGUGAUGAUUUGGGAGAUUGGGUUG [SSTryptA.O] | 350
GAACGGCGGGCGGCCGCCACUGGUAUACGAGUGAUGUUCGGAUAUACGUGAUGUAAGGUAAUUAACAGGACCGGGUCAGGGCCGG [whbob_SS_Tryp_B_t20] | 239
AUGUCUGAUAGCAGUGAUGUUGCUUCGGAUACCAGACGCGAUCUUGUCCCUUGGCAGCUGACACGGCACGUGCUAGGUUAGAAGG [whbob_Ex_Theo_A_th75] | 155
CCCUUAGACUCGGCCGCCACUCGUACCGAGAGCAUGCCACCCAUUAGUGAUGUUAAUUUGUCCUUGAGGACCGGGAGCCUAGGAA [theeternabot_exclusion_KL_Trp_B_44] | 980
UGACUGGACUGAAGGAGCGCGAAACUCCUAGUGAUGUUAGGACAACGAGACAAAGUCUCGACGCAGGUAGGUCGCAGUCUAGUCU | 131
GAGGGCUCGGGAGGAUAUGAGUCUAGUGAUGUUAGGCGGUCCAUGCGCGUGGCGCGUUAUGCCCUUUUAGAAGGCCCGAGCCCGC [#2 Exclusion - FMN B Attempt #23 (HarryS)] | 90.5
CCAUCGCUAUUCGAUACCAGCUACUUAGUGAUGUUAAGUUUAUAUCCACUGUAGGUGGAAAGCCCUUGGCAGCGAAUAGUGAUGG [Theophylline B K4 25] | 491
GGGCUGGUGCUAGGAUAUGCGAUGAAUGCUCAGAAAACCUUGAGUCCGCAGUGAUGUUGCGGCACCGCAGAAGGAGCUAAGGCUC [Reorinraor] | 111
UGUACCGAGUCAGGAUAUGGCGUCGAAAGACGAAACCAGUGAUGUUGGAAUAUCGACGAAAGUCGUCCAGAAGGGACUUGGUACU [FmnBS 17 #SwitchBubble #StaticStem #DoubleMagnetSystem] | 256
GUAUGUGGAAACACGUACUUGUAUCCUAAGCAGGAUAUGCGGAAACGCAGAAGGGCUACCAGCGAGUUUAUCCAGUGAUGUUGGA [Ex FMN A 12] | 269
AAUUUCGGAUACAUCAUAGUUUUAAUUCGGCGAGGACCGGUACGGCCGCCACUCGGUAUAGACGCGUCCAGUGAUGUUGGCGCUU [theeternabot_sameState_KL_Trp_A_45] | 237
UGGAUAUCGUUUAGUCUGGUGAGCUCAGAUACCAGACUAGCGAUGGUCCCUUGGCAGCUGAUUACGAUUGAGUGAUGUUCAAUCG [Theo A Ex t9c] | 172
UUUAUUAAGACGGCCGCCACUGAAUUAGAGUGAUGUUCUAAAAUUUUUAAUUUUUUUUUUUUCAGCAGGACCGGGUCAAUUAUUA [JR_SSTryptoB_Sub012] | 116
AACGUUUUGAGAAGGAGCGCGAUAAGCAGUGAUGUUGCUAUAAUUCUAUUUCUAUUUAAUUCGCAGGUAGGUCGCUCAAUACGUA [JR_SSArginiB_Sub019] | 134
AAGGUAUCACCACAACAUCACUAAGGUGAUACCAGCAUCGAAAGAUGCCCUUGGCAGCACCAACUUGCAGUGAUGUUGCAAGUAA [(T)'-(H)'-(T1)-(T2)-(H1)-(H2)_Design9] | 365
